Assay results reported in patent US20120253017A1.

How the values were obtained:
[1] = target: mouse c-kit (recombinant, on BIAcore chip) (mouse) (UniProt P05532); assay: BIAcore, mouse cKIT on high density CM5 chip
[2] = target: mouse Stem Cell Factor, 6xHIS tag (mouse) (UniProt P20826); assay: BIAcore, SCF on CM5 chip
[3] = target: human Stem Cell Factor, 6xHIS tag (human) (UniProt P21583); assay: BIAcore, SCF on CM5 chip
[4] = target: mouse Stem Cell Factor, 6xHIS tag (mouse) (UniProt P20826); assay: BIAcore, SCF on high density CM5 chip
[5] = target: rat Stem Cell Factor, GlySerHis(6) tag (rat) (UniProt P21581); assay: BIAcore, SCF on high density CM5 chip
Sequence of rat Stem Cell Factor, GlySerHis(6) tag (rat) (P21581 other isoform, or with tags, fused parts or gaps limits assumed): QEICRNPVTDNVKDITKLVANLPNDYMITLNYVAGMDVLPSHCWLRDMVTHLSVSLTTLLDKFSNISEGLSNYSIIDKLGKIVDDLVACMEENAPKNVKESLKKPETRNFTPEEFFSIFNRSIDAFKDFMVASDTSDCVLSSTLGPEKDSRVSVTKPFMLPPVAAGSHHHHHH

Sequence of mouse Stem Cell Factor, 6xHIS tag (mouse) (P20826 26-190 limits assumed): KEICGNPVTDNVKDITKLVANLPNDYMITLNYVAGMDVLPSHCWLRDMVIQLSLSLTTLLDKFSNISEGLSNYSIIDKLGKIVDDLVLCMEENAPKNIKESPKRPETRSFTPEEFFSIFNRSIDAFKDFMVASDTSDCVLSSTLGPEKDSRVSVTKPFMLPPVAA
Sequence of human Stem Cell Factor, 6xHIS tag (human) (P21583 26-190 limits assumed): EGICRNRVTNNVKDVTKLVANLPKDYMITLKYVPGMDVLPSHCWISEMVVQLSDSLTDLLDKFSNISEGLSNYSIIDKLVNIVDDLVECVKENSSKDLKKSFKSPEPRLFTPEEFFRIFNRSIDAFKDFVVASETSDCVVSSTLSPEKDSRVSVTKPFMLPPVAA

Substance: anti mouse cKIT antibody clone 2B8
- response (RU) [1]: 100 RU

Substance: Cyno cKIT ECD-Fc (from UniProt O95905) (Fc fusion)
- Kd [2]: 15 nM
- Kd [3]: 9.78 nM

Substance: mcKIT GNNK+ E207A (from UniProt P05532 25-527) (Fc fusion)
- Kd [4]: 26 nM
- Kd [5]: 81 nM
